In US20150351390A1, “COMPOSITIONS AND METHODS FOR AUXIN-ANALOG CONJUGATION” (PIONEER HI-BRED INTERNATIONAL, INC., priority 2012, published 2015):

Legend:
[1] = LC-MS assay of GH3 conjugation of IAA with Asp or Glu; type: biochemical; conditions: for kcat (hrs−1) IAA-Asp: conjugation of IAA with Asp by recombinant GH3 protein, IAA-Asp product by LC-MS; for kcat (hrs−1) IAA-Glu: conjugation of IAA with Glu by recombinant GH3 protein, IAA-Glu product by LC-MS
Method in brief: (§1)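 Rxn: 20 mM Tris-HCl pH 8.0, 5 mM MgCl2, 1 mM DTT, 5 mM ATP, 5 mM auxin, 5 mM Asp/Glu, 44–164 μg/mL purified His-GH3; 30° C., 3 h. MeOH quench, supernatant diluted 20×, LC-MS vs conjugate standards.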

[2] = LC-MS assay of GH3 conjugation of 2,4-D with Asp or Glu; type: biochemical; conditions: 5 mM 2,4-D substrate; for kcat (hrs−1) 2,4-D-Asp: conjugation of 2,4-D with Asp by recombinant GH3 protein, 2,4-D-Asp product by LC-MS; for kcat (hrs−1) 2,4-D-Glu: conjugation of 2,4-D with Glu by recombinant GH3 protein, 2,4-D-Glu product by LC-MS
Method in brief: as §1

Molecule | kcat (hrs−1) IAA-Asp [1] | kcat (hrs−1) IAA-Glu [1] | kcat (hrs−1) 2,4-D-Asp [2] | kcat (hrs−1) 2,4-D-Glu [2]
RcGH3-17: GH3 protein, accession XP_002531876 (protein, listed as Ricinus communis) MDGKKLEYKGEAALEEIEKLTEKADEVQESILREILIQNGQTEYLSKYIKGSKDVKEFKYCVPVTTYKDMYPYIQRIANGEDSSLITGRPITEMLCSSGTSAGEPKLMPSINEDLDRRTFIYNLVMPIMNQYISGLDEGKAMYLYFVKEEMSTPCGLPARTVLTSYYKSKHFKCRARDSFNDFTSPDQAILCKDSDQSMYCQLLSGLVYRHQVLRIGAVFASALLRAISFLERNWVHLCNDIRNGELDPMITDPECRSCMSMILSSPNPSLADEIEEICSRPSWKGILCLLWPRTKYIEAVVTGSMAQYVPSLKYYSERKLPLVCTMYASSECYFGVNLKPLSDPAEVSFTLMPNMCYFEFIPLGENGTLLMDVDEEEKVPIHKLVDLVHVRRGCYYELVVTTFAGLYRYRIGDVLQVTGFHNQAPQFRFICRRNVVLSIDNDKTNEEDLHKSISTAKKLLEPYNAILVEYTSYAETLVVPGHYVLYWEILHHSSVVNHNQTPLDAEVFQECCIAVEEELDYIYRRCRTHDKSIGPLEIRVVEPGTFEALMDLFIGQGGSINQYKTPRCIKSNAALMLLNSHVKASFFSARDPVWIP | 4.366 h⁻¹ | 10.433 h⁻¹ | 0.000 h⁻¹ | 0.027 h⁻¹
SbEES08587: GH3 protein, accession EES08587 (protein, Sorghum bicolor) MSTSPAVLDHDHGHHRLLSSVSPPTTTTDSPATAMPPRAPSSLPPTIPACDPHDGPASLQLIEDLTTHAGAIQQRVLREILAMNAGTDYLRGFLGAGAEGRDADELAATFKDRVPVVEYEDVKPYIERIANGAPSSLISSKTITELLTSSGTSGGQPKLMPSTEEELDRKTFLYNLLVPVMNKYVEGLDKGRCMYLLFVKPEITTASGLVARPVLTSYYKSRHFRERPDSPYTRYTSPNEAILCPDSAQSMYAQLLCGLARRGEVLRVGAVFASAFLRAVKFLEAHWRALCDDIRAGRVDASRVTDAACRDAVARVVARPDPALADAIAAECEGSSSSSWRGIVRRLWPRTKYIDVIVTGSMAQYIPLLEFYGGGLPLVSTMYASSECYFGINLRPLDPPEDVAYTLLPNMCYYEFIKVEKDGEEAREDGKVVDLVDVEAGGYYELLVTTFTGLYRYRVGDILQVSGFHNAAPQFRFVHRRNVVLSVDTDKTSEDDLLRAVTAAKRLLAPLGGATILSEYTAYADTASIPGHYVLFWELTPTPPMPGDGDTAARVMAACCAEVEAGLDAVYQRCRSRDRSVGPLEIRVVSTGAFDALMDLCVSHGSSVNQYKTPRCIKHPDAIAVLEARVVGRFFSDTVPHWEPFNVVDTAAAGAAATTTPSLNEGAT | 10.251 h⁻¹ | 389.161 h⁻¹ | 0.044 h⁻¹ | 0.554 h⁻¹
PtGH3-9: GH3 protein, accession EEE81977 (protein, listed as Populus trichocarpa) MDGKKLEYKGWVALKEIERLTEKADEVQETILKAILMQNGETEYLSKYMKGSKDVDEFKFHVPVITYKDVCPYIQRIATGEDSSLVTGHPVTEMLCSSGTSAGEPKLMPSIAEDLDRRTFVYNLIMPIMNQYIFGLDEGKAMFLYFIKAEMSTPCGLPARTVLTSYYKSKHFKCRTRDAFNDFTSPDQAILCKDSNQSMYCQLLSGLVHRHQVLRLGAVFASAFLRAISFLERNWGRLCNDIRSGDLDPTITDPECRSCMSMLLTSPNPSLADEIEDICSNTSWKGILCHLWPRAKYIEAVVTGSMAQYIPSLEYYSEGKLPLVCTMYASSECYFGVNLKPLCDPADVAFTLLPNMCYFEFIHLGENGTWLVNKDEEGEVPNDKLVNLVNVRLGSYYELVVTTFAGLYRYRIGDVLRVTGFHNKAPQFQFICRRNVVLSIDNDKTNEEDLHKSITAAKKLLEPYDALLVEYTSYADTSSVPGHYVLYWEILHDASFPDSSAQLDVKLLQECCISVEEELDYVYRRCRAHDKSVGPLEIRVVESGTFEALMDFFIGQGASINQYKTPRSIKSNAALKLLNSHVKASAFSPRDPAWIP | 4.487 h⁻¹ | 21.980 h⁻¹ | 0.065 h⁻¹ | 0.305 h⁻¹
